# Assay results as given in patent publication US20230348614A1 (VISTERRA, published 2023).
# Positions count from the first letter of the chain named.
# T1: G238A (Homo sapiens, UniProt P18827)
# T1 construct: clone of the alanine scanning library on HEK-293T cells; m17 with one substitution; also called CD138 G238A
# T1 sequence (CD138 (SDC1), full length, point mutant, looked up): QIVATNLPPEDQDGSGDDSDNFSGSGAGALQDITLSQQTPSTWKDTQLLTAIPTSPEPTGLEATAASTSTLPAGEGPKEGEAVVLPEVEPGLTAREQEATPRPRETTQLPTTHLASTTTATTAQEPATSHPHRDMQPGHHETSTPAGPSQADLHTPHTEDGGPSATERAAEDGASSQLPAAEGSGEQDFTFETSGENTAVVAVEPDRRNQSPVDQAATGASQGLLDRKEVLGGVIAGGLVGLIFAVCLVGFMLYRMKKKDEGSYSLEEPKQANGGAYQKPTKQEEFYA
# T2: P112A (Homo sapiens, UniProt P18827)
# T2 construct: clone of the alanine scanning library on HEK-293T cells; m17 with one substitution; also called CD138 P112A
# T2 sequence (CD138 (SDC1), full length, point mutant, looked up): T1 sequence (CD138 (SDC1), full length, point mutant, looked up) with P90A, A216G
# T3: R155A (Homo sapiens, UniProt P18827)
# T3 construct: clone of the alanine scanning library on HEK-293T cells; m17 with one substitution; also called CD138 R155A
# T3 sequence (CD138 (SDC1), full length, point mutant, looked up): T1 sequence (CD138 (SDC1), full length, point mutant, looked up) with R133A, A216G
# T4: P167A (Homo sapiens, UniProt P18827)
# T4 construct: clone of the alanine scanning library on HEK-293T cells; m17 with one substitution; also called CD138 P167A
# T4 sequence (CD138 (SDC1), full length, point mutant, looked up): T1 sequence (CD138 (SDC1), full length, point mutant, looked up) with P145A, A216G
# T5: L114A (Homo sapiens, UniProt P18827)
# T5 construct: clone of the alanine scanning library on HEK-293T cells; m17 with one substitution; also called CD138 L114A
# T5 sequence (CD138 (SDC1), full length, point mutant, looked up): T1 sequence (CD138 (SDC1), full length, point mutant, looked up) with L92A, A216G
# B1: Fab fragment of mAb 4320 (Fab, V domains shown)
# VH: QVQLVQSGAEVKKPGASVKVSCKASGYSFSSYYMHWVRQAPGQGLEWMGTIHPSDSTTNYNQKFQGRVTMTVDTSTRTAYMELSSLRSEDTAVYYCANFVYWGQGTTVTVSS
# VL: DIVMTQTPLSLSVTPGQPASISCKSSKSLLYKDGKTYLNWFLQKPGQSPQLLIYVVSTRASGVPDRFSGSGSGTDFTLKISRVEAEDVGVYYCQQLVEYPYTFGQGTKLEIKR
# modifications: N-terminal Q1 observed as pyroglutamic acid (PCA) in the 138-2-5 complex
# notes: In the crystal structures heavy chain residues 1-213 were traced; also called Fab4320
# Assays:
# [1] = target: T1, G238A; test: alanine scan: flow cytometry on HEK-293T cells expressing the mutant clone, 4320 Fab 0.50 ug/mL, normalised to WT CD138; Range %WT Binding 9; Normalized 4320 vs. BB4 30.2
# Protocol: (§1) Serial dilutions of each MAb were tested for immunoreactivity against cells expressing target protein (WT) or vector alone. Validation of target expression and optimization of detection and binding of anti-CD138 antibodies both by flow cytometry was completed in replicate (N=4). The optimal screening concentration for each MAb was determined based on the raw signal values and signal-to-background calculations specifically optimized for each test article. Optimized parameters included the use of 10% goat serum as blocking reagent. Primary antibody staining was for 60 minutes at 25° C. Wash buffer include phosphate buffered saline (divalent metal ion free), pH 7.4. […] Secondary antibodies were diluted 1:400 and incubated for 30 minutes at 25° C.
# (§2) Library screens of very-high-affinity mAbs can fail to yield critical residues for antibody binding due to deficiencies of such an assay to detect and differentiate critical vs. less critical binding based on affinity and quantification of cell binding. One common approach in the literature is the use of monovalent antibody derived fragments such as Fab usually weakens binding sufficiently to allow identification of critical residues for binding. […] Binding of each test Ab to each mutant clone in the alanine scanning library was determined, in duplicate, and likewise evaluated by flow cytometry.
# [2] = target: T2, P112A; test: alanine scan: flow cytometry on HEK-293T cells expressing the mutant clone, 4320 Fab 0.50 ug/mL, normalised to WT CD138; Range %WT Binding 9; Normalized 4320 vs. BB4 21.6
# Protocol: as §1, §2
# [3] = target: T3, R155A; test: alanine scan: flow cytometry on HEK-293T cells expressing the mutant clone, 4320 Fab 0.50 ug/mL, normalised to WT CD138; Range %WT Binding 6; Normalized 4320 vs. BB4 39.8
# Protocol: as §1, §2
# [4] = target: T4, P167A; test: alanine scan: flow cytometry on HEK-293T cells expressing the mutant clone, 4320 Fab 0.50 ug/mL, normalised to WT CD138; Range %WT Binding 46; Normalized 4320 vs. BB4 50.9
# Protocol: as §1, §2
# [5] = target: T5, L114A; test: alanine scan: flow cytometry on HEK-293T cells expressing the mutant clone, 4320 Fab 0.50 ug/mL, normalised to WT CD138; Range %WT Binding 15; Normalized 4320 vs. BB4 30.8
# Protocol: as §1, §2
binder,measurement,setting,value
B1,Mean %WT Binding,[1],28.3 %WT
same,Mean %WT Binding,[2],22.6 %WT
same,Mean %WT Binding,[3],12.3 %WT
same,Mean %WT Binding,[4],56.4 %WT
same,Mean %WT Binding,[5],36.2 %WT
